This is an account of results in US20060024289.

The subject of one data set is T1, Ac-RRVR-AMC.
T1 sequence: RRVR

The target of another data set is VEGF165 (UniProt P15692).
Data set [1] deals with T2, Ac-IEPD-AMC.
T2 sequence: XIEPDX

The target of the next data set is T3, Ac-RQAR-AMC.
T3 chain: RQAR

In data set [2] the target is T4, extracellular domain of VEGF-R2 (Flk1) fused to the Fc domain of mouse IgG.
T4 chain: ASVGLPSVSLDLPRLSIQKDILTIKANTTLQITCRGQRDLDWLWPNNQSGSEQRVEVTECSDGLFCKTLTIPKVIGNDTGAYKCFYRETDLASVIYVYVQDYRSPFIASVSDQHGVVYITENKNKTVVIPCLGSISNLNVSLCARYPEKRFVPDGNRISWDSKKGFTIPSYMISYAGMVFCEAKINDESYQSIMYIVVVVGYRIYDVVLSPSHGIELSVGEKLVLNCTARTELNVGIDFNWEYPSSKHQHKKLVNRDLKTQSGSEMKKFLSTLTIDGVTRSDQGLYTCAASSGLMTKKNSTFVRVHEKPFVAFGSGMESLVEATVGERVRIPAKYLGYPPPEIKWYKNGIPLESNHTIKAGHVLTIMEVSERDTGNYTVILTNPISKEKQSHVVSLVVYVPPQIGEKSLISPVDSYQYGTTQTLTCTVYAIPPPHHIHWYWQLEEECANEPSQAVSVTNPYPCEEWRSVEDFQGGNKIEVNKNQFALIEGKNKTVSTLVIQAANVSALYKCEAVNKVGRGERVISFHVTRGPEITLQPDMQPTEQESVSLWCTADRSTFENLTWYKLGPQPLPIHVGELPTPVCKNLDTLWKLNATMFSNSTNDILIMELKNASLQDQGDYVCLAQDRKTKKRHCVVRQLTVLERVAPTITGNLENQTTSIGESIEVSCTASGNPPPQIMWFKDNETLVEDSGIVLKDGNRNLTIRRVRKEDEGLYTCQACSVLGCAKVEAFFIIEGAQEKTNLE

For the next data set, the target named is T5, VEGF165, P15692.
T5 chain: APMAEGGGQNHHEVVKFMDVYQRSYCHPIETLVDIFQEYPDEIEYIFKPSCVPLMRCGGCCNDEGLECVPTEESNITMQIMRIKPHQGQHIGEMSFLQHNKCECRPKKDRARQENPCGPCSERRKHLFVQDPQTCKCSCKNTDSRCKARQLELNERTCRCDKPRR

Data set [3] concerns the target T6, Ac-IEFD-AMC.
T6 chain: XIEFDX
Description: Michaelis-Menten kinetics of fluorogenic tetrapeptide hydrolysis.

Data set [4] concerns the target T7, Ac-IEPD-AMC.
T7 chain: XIEPDX
Described as above.

Data set [5] concerns the target T8, Ac-IKPD-AMC.
T8 chain: XIKPDX
The description is as above.

Data set [6] addresses T9, Ac-LEPD-AMC.
T9 chain: XLEPDX
Described as above.

The target of data set [7] is T10, Ac-IETD-AMC.
T10 chain: XIETDX
The data set is described as above.

Data set [8] has as its target T11, Ac-LEFD-AMC.
T11 chain: XLEFDX
The data set is described as above.

For data set [9], the target named is T6, Ac-IEFD-AMC.
Data set [10] addresses T7, Ac-IEPD-AMC.
In data set [11] the target is T8, Ac-IKPD-AMC.
The target of data set [12] is T9, Ac-LEPD-AMC.
Data set [13] concerns the target T10, Ac-IETD-AMC.
Data set [14] deals with T11, Ac-LEFD-AMC.
A further data set addresses T12, Ac-IAPD-ACC.
T12 chain: XIAPDX

Values joined by “and” are separate entries in the source; they are usually repeats but may differ in a detail not shown here. Equal values may be shown once.

For the molecule MT-SP1 mutein CB152 (F99V/K224F), the “preference of RRVR over RQAR substrate (ratio of kcat/Km)” value in the data set on Ac-RRVR-AMC is “prefer RRVR to RQAR by greater than 8 fold”. For the same molecule, the “cleavage of 5 µM VEGF165 by 100 nM protease, 37° C., five hours (SDS-PAGE, silver stain)” value with VEGF165 is “while the more selective variant CB152 does not”.
As for rat granzyme B R192A, in the data set with Ac-IEPD-AMC [1], the “specificity constant (kcat/Km)” value came to 55 M⁻¹ s⁻¹.

B1: wild-type MT-SP1 protease domain (protein)
chain: VVGGTDADEGEWPWQVSLHALGQGHICGASLISPNWLVSAAHCYIDDRGFRYSDPTQWTAFLGLHDQSQRSAPGVQERRLKRIISHPFFNDFTFDYDIALLELEKPAEYSSMVRPICLPDASHVFPAGKAIWVTGWGHTQYGGTGALILQKGEIRVINQTTCENLLPQQITPRMMCVGFLSGGVDSCQGDSGGPLSSVEADGRIFQAGVVSWGDGCAQRNKPGVYTRLPLFRDWIKENTGV
On to B1, for which the preference of RQAR over RRVR substrate (ratio of kcat/Km) with Ac-RQAR-AMC is 2 times. Moreover, in [2], the “cleavage of purified Flk1-Fc by 1 µM protease (SDS-PAGE, Edman sequencing)” value is “Purified VEGFR2-Fc is cleaved by wild-type and mutant MT-SP1 at the sequence RRVR/KEDE in the extracellular stalk region of the receptor”; the “cleavage of purified VEGFR2-Fc (SDS-PAGE)” value is “The purified VEGFR2-Fc is efficiently cleaved by wild-type and mutant MT-SP1 ... None of the protease variants or wild-type cleave the Fc domain”. Moreover, in the data set with VEGF165, P15692, the “cleavage of 5 µM VEGF165 by 100 nM protease, 37° C., five hours (SDS-PAGE, silver stain)” value is given as “MT-SP1 efficiently cleaves VEGF^165 under the assay conditions”.

B2: wild-type rat granzyme B (protein)
chain: IIGGHEAKPHSRPYMAYLQIMDEYSGSKKCGGFLIREDFVLTAAHCSGSKINVTLGAHNIKEQEKMQQIIPVVKIIPHPAYNSKTISNDIMLLKLKSKAKRSSAVKPLNLPRRNVKVKPGDVCYVAGWGKLGPMGKYSDTLQEVELTVQEDQKCESYLKNYFDKANEICAGDPKIKRASFRGDSGGPLVCKKVAAGIVSYGQNDGSTPRAFTKVSTFLSWIKKTMKK
With B2, the Km in the data set with Ac-IEFD-AMC [3] is 150 µM and 153 µM; with Ac-IEPD-AMC [4], 370 µM; with Ac-IKPD-AMC [5], 1500 µM and 1600 µM; with Ac-LEPD-AMC [6], 1100 µM; with Ac-IETD-AMC [7], 250 µM; in the data set with Ac-LEFD-AMC [8], 600 µM. Besides, the “cleavage of purified VEGFR2-Fc (SDS-PAGE)” value in [2] is “The purified VEGFR2-Fc is efficiently cleaved by wild-type and mutant granzyme B ... None of the protease variants (wild-type or mutant) cleave the Fc domain”. The “in vitro cleavage of soluble Flk1-Fc (gel, FIG. 10)” value in [2] is “Wild-type granzyme B and the listed muteins cleave the VEGFR-Fc receptor”. Also, the Kcat in the data set with Ac-IEFD-AMC [9] stood at 0.15 s⁻¹; with Ac-IEPD-AMC [10] it was 1.2 s⁻¹; in the data set with Ac-IKPD-AMC [11], 0.15 s⁻¹; with Ac-LEPD-AMC [12], 0.096 s⁻¹; in the data set with Ac-IETD-AMC [13] it was 0.39 s⁻¹. In addition, the Kcat/Km with Ac-IEFD-AMC [9] is 1000 M⁻¹ s⁻¹; in the data set with Ac-IEPD-AMC [10], 3300 M⁻¹ s⁻¹; with Ac-IKPD-AMC [11], 99 M⁻¹ s⁻¹; with Ac-LEPD-AMC [12], 87 M⁻¹ s⁻¹; with Ac-IETD-AMC [13], 1600 M⁻¹ s⁻¹; with Ac-IAPD-ACC, 110 M⁻¹ s⁻¹. Besides, the kcat in the data set with Ac-IEFD-AMC [9] is 0.15 s⁻¹ and 0.154 s⁻¹; in the data set with Ac-IEPD-AMC [10] it was 1.2 s⁻¹; in the data set with Ac-IKPD-AMC [11], 0.15 s⁻¹; in the data set with Ac-LEPD-AMC [12] it was 0.096 s⁻¹; in the data set with Ac-LEFD-AMC [14] it was 0.0087 s⁻¹. Moreover, the specificity constant (kcat/Km) in the data set with Ac-IEFD-AMC [9] came out at 1000 M⁻¹ s⁻¹; with Ac-IEPD-AMC [10], 3300 M⁻¹ s⁻¹; with Ac-IKPD-AMC [11] it was 99 M⁻¹ s⁻¹; with Ac-LEPD-AMC [12], 88 M⁻¹ s⁻¹; in the data set with Ac-LEFD-AMC [14], 14 M⁻¹ s⁻¹; with Ac-IAPD-ACC, 110 M⁻¹ s⁻¹. Moreover, the ΔΔGT^‡ in the data set with Ac-IEFD-AMC [9] came to 0.71 kcal/mol; in the data set with Ac-IEPD-AMC [10], 0 kcal/mol; with Ac-LEPD-AMC [12], 2.18 kcal/mol; in the data set with Ac-LEFD-AMC [14], 3.26 kcal/mol.
